# According to article doi:10.1101/144360 (bioRxiv, 2017):
# AGT = not defined here
# T1: 6xHIS-SH3_(Boi1) (S. cerevisiae, UniProt P38041 13-77)
# T1 sequence: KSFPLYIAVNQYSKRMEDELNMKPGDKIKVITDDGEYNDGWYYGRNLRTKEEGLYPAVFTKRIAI
# Target: T1, 6xHIS-SH3_(Boi1)
# Experiment: SPR
binder,measurement,value
6xHis-SVSSKGPSNSLNLSTADLSLN-{AGT} (reading uncertain; also: AGT tag covalently labeled with SNAP-Biotin) [6xHis-Exo84_(121-141)-AGT],Kd,~1 µM
